Results from the supplement of paper PMC12042874.
± gives the uncertainty stated by the source.

Assay: amyloid nucleation score (Sup35N fusion, yeast selection) (log enrichment); library NNK2; higher = more nucleation; inactive = no reads after selection
Method in brief: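 Random libraries were run with three technical output replicates. In each, psi-negative yeast expressing Sup35N fused to peptides of 20 random codons were induced 24 hours with 100 μM copper sulfate and grown 7 days at 30°C on medium lacking adenine and uracil, and input and output plasmid inserts were Illumina-sequenced. The nucleation score is the DiMSum log enrichment of output over input reads, centred on the mode score of non-aggregating sequences, and sequences under 100 input reads were excluded.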
VIGRYIDYC showed an amyloid nucleation score of -0.13 ± 0.27. With VIKTFVILDVYAGLSCQC the amyloid nucleation score was 1.25 ± 0.34. Work on VILNYSRY yielded an amyloid nucleation score of 4.5 ± 0.078. For VIMMSNNSERYYVEQIFVSG, the amyloid nucleation score was 0.09 ± 0.41. VINLGGSE showed an amyloid nucleation score of 0.406 ± 0.38. Substance VIPFISIRLCAAVRVFVPQS has an amyloid nucleation score of 5.04 ± 0.075. For VISNHPETTDTNRVLLYVLG, the amyloid nucleation score was 0.411 ± 0.53. With VISYMFRSTGVFNT the amyloid nucleation score was 2.73 ± 0.19. Work on VIVGSLRCHFSLVAWVKC yielded an amyloid nucleation score of 0.651 ± 0.51. VKALNKLGAKINLMIRFVRS gave an amyloid nucleation score of -0.306 ± 0.39. In the case of VKCKRCSASSFAIYVEYCCT, the amyloid nucleation score is reported as 0.138 ± 0.17. Substance VKEYYSTGSTWRLYWMWSDW has an amyloid nucleation score of 0.282 ± 0.36. Work on VKLMY yielded an amyloid nucleation score of -1.12 ± 0.62. Work on VKNFYVNIFQCGIPPPFKEM yielded an amyloid nucleation score of 7.668 ± 0.026. In the case of VKSTSFPTWMISMIGQRTAH, the amyloid nucleation score is reported as -0.711 ± 1.1. Work on VKVGSSTRRGSGVPSGPKLG yielded an amyloid nucleation score of 1.04 ± 0.52. For VKVPYMLARGLDQKGTRRWQ, the amyloid nucleation score was 8.102 ± 0.064. VLAARVTTYHLCVSEDVVTL showed an amyloid nucleation score of 2.9 ± 0.15. In the case of VLCRRHSN, the amyloid nucleation score is reported as 1.41 ± 0.38. With VLCTYRGLDITL the amyloid nucleation score was 0.166 ± 0.21. Work on VLDSAYCAFVYFFIVVIWWF yielded an amyloid nucleation score of -0.595 ± 0.61. Work on VLDYSTHIEFGQRRVVGFAR yielded an amyloid nucleation score of -0.321 ± 1. With VLFDGKPMEVFFWCLPEWVF the amyloid nucleation score was “inactive”. With VLFSHQDEGLWHIHVHF the amyloid nucleation score was 3.28 ± 0.052. Substance VLGGPTVRLSWFPSSGLACY has an amyloid nucleation score of 0.23 ± 0.65. Work on VLGWCCLVLSILLKCEKVGL yielded an amyloid nucleation score of -0.095 ± 1.1. For VLILDVVYSLDESEVSVVWY, the amyloid nucleation score was -0.429 ± 0.42. With VLIVFNNPCFMGWALVDVVL the amyloid nucleation score was 8.194 ± 0.053. With VLLFLSMEVLNRNGMKVPVM the amyloid nucleation score was 2.17 ± 0.16. For VLNGRTEWTKQVDFIYFITD, the amyloid nucleation score was -0.464 ± 1.1. With VLPGVSFFTYRFKKF the amyloid nucleation score was “inactive”. With VLRRIVMMLSIS the amyloid nucleation score was -0.069 ± 0.32. For VLSCCIPKKNSYWTVTDQPC, the amyloid nucleation score was 8.266 ± 0.033. For VLSSRSEDTGQACEVIICVV, the amyloid nucleation score was 0.693 ± 0.34. VLVDTSDRWLMARWLGVPKP showed an amyloid nucleation score of 4.79 ± 0.084. For VLVEGVQCYSENRTNT, the amyloid nucleation score was 1.49 ± 0.41. With VLVRS the amyloid nucleation score was 0.157 ± 1. For VLVSVVRCDVVAAVRCVQM, the amyloid nucleation score was 3.56 ± 0.11. In the case of VLVTRIEWMGESTCMSLVNY, the amyloid nucleation score is reported as 2.69 ± 0.12. With VLVVSRA the amyloid nucleation score was -0.514 ± 0.45. For VLYFLYGKWQKTQRSNRYLQ, the amyloid nucleation score was -0.674 ± 0.76. VLYHFEISA gave an amyloid nucleation score of -0.011 ± 0.54. Substance VLYLLKSSSFSTGVNSRCMR has an amyloid nucleation score of -0.256 ± 1.1. For VLYSRVLDGRESTNLGRL, the amyloid nucleation score was “inactive”. Substance VLYYTPRLSVERMGFHNMIY has an amyloid nucleation score of -0.46 ± 1. With VMGEKIWSAWYTRDDQLCGS the amyloid nucleation score was 0.547 ± 0.36. Work on VMNDLILSKAVLGFELRLWG yielded an amyloid nucleation score of 4.23 ± 0.066. VMNSVHVFQYTSCCLILVGL showed an amyloid nucleation score of 6.945 ± 0.062. For VMTSIVFNRVSWYFLIMFVW, the amyloid nucleation score was -0.987 ± 0.55. Substance VMVAYSLLGSRSSILLW has an amyloid nucleation score of 0.021 ± 0.32. Substance VMYRRSACIEQDSYSNINCR has an amyloid nucleation score of 0.025 ± 0.29. VNAHLWYIFRVWDVKDRVVD gave an amyloid nucleation score of -0.315 ± 0.74. Substance VNGSTMFQVMFWLRPVHVIE has an amyloid nucleation score of -0.119 ± 0.53. With VNIRGTHVLVRVYSQGRNRA the amyloid nucleation score was 8.528 ± 0.062. In the case of VNTNPMVAVPGMYIYYRWFL, the amyloid nucleation score is reported as “inactive”. Substance VNVNMPWTEERSKSEMSNTW has an amyloid nucleation score of 1.4 ± 0.37. For VNVSGSGSVPY, the amyloid nucleation score was 0.741 ± 0.27. For VNVYMYNYLLKHITKDRRST, the amyloid nucleation score was 8.16 ± 0.031. VNWEHVRIVELFYKGMSQMA showed an amyloid nucleation score of -0.549 ± 1. Substance VNWVGLSLKIRGYFTVSTWR has an amyloid nucleation score of -0.141 ± 0.54. For VPFCGNNCSHCVRMSRLGRS, the amyloid nucleation score was 0.719 ± 0.47. Substance VPLEYSRVI has an amyloid nucleation score of 2.15 ± 0.15. VPPSLLYLQTRDSPPEERMM showed an amyloid nucleation score of 0.374 ± 0.64. For VPRFPA, the amyloid nucleation score was “inactive”. Substance VPRFVCTHVDLIFGGNGCTF has an amyloid nucleation score of 4.91 ± 0.075. In the case of VPVSRILNLFFVLVTL, the amyloid nucleation score is reported as 6.45 ± 0.086. VQLDSSFLIM gave an amyloid nucleation score of 1.02 ± 0.48. For VQYCFFCAHRDSFGFKHCF, the amyloid nucleation score was “inactive”. With VRCIE the amyloid nucleation score was -0.282 ± 0.28. For VRCLVRYYAVR, the amyloid nucleation score was -0.649 ± 0.79.
